Laboratory results taken from the nanobody polyreactivity screen of Harvey et al. (2022).

test: yeast display, Sf9 membrane polyspecificity reagent, FACS + sequencing; frameworks hold sequencing errors
How it was run: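 A synthetic nanobody library was expressed on Saccharomyces cerevisiae BJ5465 by galactose induction for 36–48 hours. The library was stained for 1 hour at 4 °C with 10% biotinylated, detergent-solubilized Sf9 membrane reagent and enriched with streptavidin microbeads before FACS. Low and high (top ~1%) gates were set on anti-HA fluorescence for expression and streptavidin fluorescence for reagent binding, and each polyreactivity label reflects the gate of origin.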

Row | Sequence | polyreactivity (PSR sort gate)
1 | QVQLVESRRGLVPAGGSLRLSCARCGITVPAYAMGWYRQAPGKERELVASISRRGGSTYYADSVKGRFTISRDNAKNTVYLQINSLKPVDTAVYYCNADIKQRSDRYDYWGQGTQVTVSS | high polyreactivity
2 | QVQLVESGGGLVQAGGSLRISCAASGSIFVHYSMGWYRQAPGKEREFVAAISRGGGTTYYADSVKGRFTISRDNAKNTVYLQMNSLKPEDTAVYYCSARPSTDEGHRQSGLDYWGQGTQVTVSS | high polyreactivity
3 | QVQLVESGGGLVQAGGSLRLSCAASGRIFRYYAMGWYRQAPGKERELVAAITAGGGTTYYADSVKGRFTISRDNAKNTVYLQMNSLKPEDTAVYYWAKDGRYYSHYNYWGQGTQVTVSS | high polyreactivity
4 | QVQLVESGGGLVQAGGSLRLICAASGSTFGYYTMGWYRQAPGKERELVAAITWSGGSTYYADSVKGRFTISRDYANNTVYLQMNSLKPEDTAVYYCAADDYWTPFGYWGQGTQVTVLS | low polyreactivity
5 | QVQLVESGGGLVQAGGSLPVSCAASGFTIVYYAKGWYRQAPGKERELVADISSEGSTYADSVKGRFTISRDNAKNTVSLQMNSLKPEDTAVYYCPAQPIYSYWRSSLYYYWGQGTQVTVSS | high polyreactivity
6 | QVQLVESGGGLVQAGGSLRLSCAASGSIFWSYAMGWYRQAPGKEREFVAAITVSGGSTYYADSVKGRFTISRDNAKNTVYLQMNSLKPEDTAVFYCAARQLTAGGTDLDYWGQGTKVTVSS | low polyreactivity
7 | QVQLVESGGGLVQAGGSLRLSCAASGRTFWNYAMGWYIQAPGKEREFVAVIRFSDGSTYYADSVKGRFTISRDNAKNTVYLQMNSLKPEDTAVYYCAAKGPRRWGSGFDYWGQGTQLTVSS | low polyreactivity
8 | QVQLVESGGGLVQAGGSLRLSCAASGRIFYTNAMGWYRQAPGKERELVAAIDYSDSTTYYADSVKGRFTISRDNAKNTVYLQMNSLKPEDTAVYYCAAESYLYTVTFEYWGQGTQVTVSS | high polyreactivity
9 | QVQLVESGGGLVQAGGSLRLSCAASGFTFPWYAMGWYRQAPGKERELVASISYRGDSTYYADSVKGRFTISRDNAKNTVYLQMNSLKPEDTAVYYCNTRLASYYLPGFDYWGQGTQVTVSS | low polyreactivity
10 | QVQLVESGGGLVQAGGSLRLSCAASGRTFLWYTMGWYRQAPGKERELVAAISGSGGSTYYADSVKGRFTISRDNAKNTVYLQMNSLKPEDTAVYYCNAVRGYRYDYWGQGTQVTVSS | high polyreactivity
11 | QVQLVESGGGIVQAGGSLRLSCAASGFTFTHYAMGWYRQAPGKERELVAAISPSGGSTYYADSVKGRFTISRDNAKNTVYLQMNSLKTEDTAVFYFAARRDGWVQWGYYYWGQGTEVTVSS | low polyreactivity
12 | QVQLVESGGGLVQAGGSLRLSCAASGSIFDTYVMGWYRQAPGKERELVAAISSVSSTYADSVKGRFTISRDNAKNTVYLQLNSLKPVDTAVYYCAADSRSPGHDYWGQGTQVTVSS | low polyreactivity
13 | QVQLVESGGGLVQAGGSLRLSCAASGSIFYYYAMGWYRQAPGKERELVAAINGGDTYYADSVKGRFTISRDNAKNTVYLQMNSLKPEDTAVYYCAAEGVTVEWDYDYWGQGTQVTVSS | low polyreactivity
14 | QVQLVESGGGLVQAGGSLRLSCAASGSIFATNAMGWYRQAPGKERELVASISSGGGSTYDADSVKGRFTLSRDNAKNTVYLQMNSLKPEDTAVYYCARRIGQGSRPYWLETWRYPYDYWGQGTQVTVSS | low polyreactivity
15 | QVQLVESGGGLVQAGGSLRLSCAASGFILDYYAMGWYRQAPGKERELVATITGRGDRTYYADSVKGRFTISRDNAMNTVYLQMNSLKPEDTAVSYCAAGFDGSRHPGFDSWGQGTQVTVSS | low polyreactivity
16 | QVHLVESGGGLVQAGGSLRLSCAASGFTLANYAMGWYRQPPGKERELVAAIDYSGGGTYYADSVKGRFTISRDNAKNTVYLQMNSLKPEDTAVYYCAARRWSYYSAKYDYWGQGTQVTVSS | low polyreactivity
